Assay results published in article doi:10.1101/2023.03.22.533679, “Selective inhibitors of the Aurora A-TPX2 protein-protein interaction exhibit in vivo efficacy as targeted anti-mitotic agents” (bioRxiv, 2023).
Where no end group is shown, it is not given here.

T1: Aurora A kinase domain (residues 126-390) with hexa-His tag (human, UniProt O14965 126-390)
T1 construct: Aurora A, human, kinase domain only, residues 126-390, Uniprot O14965; construct for biophysical assays; No removal of the His tag is described; The crystallography constructs differ (Thr287Ala or Cys290Ala; or residues 126-391 without His tag); also called Aurora A protein; pBAT4-AurAS.003 construct; source: E. coli BL21(DE3) with pUBS520, co-expressed with lambda phosphatase, purified (HisTrap, …)
T1 sequence (looked up): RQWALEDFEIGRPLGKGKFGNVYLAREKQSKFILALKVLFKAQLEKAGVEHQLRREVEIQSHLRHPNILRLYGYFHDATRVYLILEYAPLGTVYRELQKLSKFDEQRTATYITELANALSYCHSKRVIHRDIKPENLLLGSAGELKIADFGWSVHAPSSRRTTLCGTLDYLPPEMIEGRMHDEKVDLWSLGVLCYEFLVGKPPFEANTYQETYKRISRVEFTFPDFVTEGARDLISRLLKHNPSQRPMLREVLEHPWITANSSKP


Columns and labels:
[1] = biological target: T1, Aurora A kinase domain (residues …); assay: fluorescence polarisation; direct titration of up to 200 nM Aurora A to 11 nM labelled TPX2 peptide; 100 mM HEPES pH 7.4, 100 mM magnesium acetate, 50 mM NaCl, 0.02% P20, 1 mM DTT, 1 mM ATP, 10% (v/v) DMSO; settings: both partners purified
[2] = biological target: T1, Aurora A kinase domain (residues …); assay: ligand-based NMR competition; ligand-based NMR of fragment hits with Aurora A; displacement of the fragments by the TPX2 peptide fragment 7-22; settings: both partners purified

Row | Kd [1] | binding result [2] | Binder
1 | 1.2 nM | – | SYSYDAPSDFINFSSLDDEGDTQNIDSWFEEKANLENGGGC(Alexa Fluor 488 C5 maleimide)SS (TPX2 (Targeting protein for Xenopus kinesin-like protein 2), residues 7-43, Uniprot Q9ULW0; C-terminal tail that carries the cysteine for labelling; also called labelled TPX2 peptide; labelled TPX2; source: E. coli, purified (Ni Sepharose, labelled, cleaved with HRV 3C protease, second Ni Sepharose, reversed phase C18); not shown: His-tag, N-terminal, cleaved; GB1, N-terminal, cleaved) [TPX2 peptide (residues 7-43) with C-terminal GGGCSS tail, labelled with Alexa Fluor 488]
2 | – | binds | SYSYDAPSDFINFSSL (peptide, UniProt Q9ULW0 7-22, looked up, TPX2, amino acids 7-22; Uniprot Q9ULW0 is printed for the longer TPX2 peptide of the methods) [TPX2 peptide fragment (amino acids 7-22)]
